Fold of histone complex precipitated, against RAGE^124-341 data for one substance are collected here from paper doi:10.1101/2024.09.03.610921.

The target of this experiment is RAGE^23-341-His-FLAG (extracellular part of RAGE) (human (cDNA from HEK293T cells)) (UniProt Q15109). The experiment can be described thus: pull-down.
RAGE^23-341-His-FLAG (extracellular part of RAGE) (human (cDNA from HEK293T cells)), sequence (Q15109 23-341): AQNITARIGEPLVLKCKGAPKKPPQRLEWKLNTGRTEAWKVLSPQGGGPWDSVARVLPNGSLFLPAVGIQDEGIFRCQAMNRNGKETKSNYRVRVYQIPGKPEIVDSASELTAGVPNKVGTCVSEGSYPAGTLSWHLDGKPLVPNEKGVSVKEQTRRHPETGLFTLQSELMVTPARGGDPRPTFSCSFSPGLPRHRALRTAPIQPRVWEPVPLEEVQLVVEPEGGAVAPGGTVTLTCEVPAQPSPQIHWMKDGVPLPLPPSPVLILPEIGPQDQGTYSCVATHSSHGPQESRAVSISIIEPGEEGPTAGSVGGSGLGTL

For “core histone complex purified from bovines”, the fold of histone complex precipitated, against RAGE^124-341 was found to be 2.4 fold.
